Source: PMC4215257, “Geminin Inhibits a Late Step in the Formation of Human Pre-replicative Complexes*” (The Journal of Biological Chemistry, 2014)

T1: FLAG-HsGeminin-His6 (wild type) (Homo sapiens (Human), UniProt O75496)
T1 chain: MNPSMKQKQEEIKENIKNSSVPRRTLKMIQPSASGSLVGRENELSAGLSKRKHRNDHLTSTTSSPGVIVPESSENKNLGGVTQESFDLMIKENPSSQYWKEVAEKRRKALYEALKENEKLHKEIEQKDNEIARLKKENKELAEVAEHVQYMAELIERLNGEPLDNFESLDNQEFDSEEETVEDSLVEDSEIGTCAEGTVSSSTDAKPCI

B1: FLAG-HsGeminin-His6 (wild type) (natural protein, human, UniProt O75496 1-209, looked up)
chain: T1 chain
notes: also called wild-type HsGeminin; wt; source: Sf9, baculovirus; purified (Ni-NTA, then anti-FLAG M2 agarose); also in Sf9 lysate; not shown: FLAG, N-terminal, kept; His6, C-terminal, kept
B2: FLAG-HsCdt1 (natural protein, human, UniProt Q9H211 1-546, looked up)
chain: MEQRRVTDFFARRRPGPPRIAPPKLACRTPSPARPALRAPASATSGSRKRARPPAAPGRDQARPPARRRLRLSVDEVSSPSTPEAPDIPACPSPGQKIKKSTPAAGQPPHLTSAQDQDTISELASCLQRARELGARVRALKASAQDAGESCTPEAEGRPEEPCGEKAPAYQRFHALAQPGLPGLVLPYKYQVLAEMFRSMDTIVGMLHNRSETPTFAKVQRGVQDMMRRRFEECNVGQIKTVYPASYRFRQERSVPTFKDGTRRSDYQLTIEPLLEQEADGAAPQLTASRLLQRRQIFSQKLVEHVKEHHKAFLASLSPAMVVPEDQLTRWHPRFNVDEVPDIEPAALPQPPATEKLTTAQEVLARARNLISPRMEKALSQLALRSAAPSSPGSPRPALPATPPATPPAASPSALKGVSQDLLERIRAKEAQKQLAQMTRCPEQEQRLQRLERLPELARVLRSVFVSERKPALSMEVACARMVGSCCTIMSPGEMEKHLLLLSELLPDWLSLHRIRTDTYVKLDKAADLAHITARLAHQTRAEEGL
notes: human Cdt1; also called human Cdt1; source: Sf9, baculovirus; purified (anti-FLAG M2 agarose, FLAG peptide elution); also in Sf9 lysate; not shown: FLAG, N-terminal, kept
B3: Myc-HsCdc6 (natural protein, human, UniProt Q99741 1-560, looked up)
chain: MPQTRSQAQATISFPKRKLSRALNKAKNSSDAKLEPTNVQTVTCSPRVKALPLSPRKRLGDDNLCNTPHLPPCSPPKQGKKENGPPHSHTLKGRRLVFDNQLTIKSPSKRELAKVHQNKILSSVRKSQEITTNSEQRCPLKKESACVRLFKQEGTCYQQAKLVLNTAVPDRLPAREREMDVIRNFLREHICGKKAGSLYLSGAPGTGKTACLSRILQDLKKELKGFKTIMLNCMSLRTAQAVFPAIAQEICQEEVSRPAGKDMMRKLEKHMTAEKGPMIVLVLDEMDQLDSKGQDVLYTLFEWPWLSNSHLVLIGIANTLDLTDRILPRLQAREKCKPQLLNFPPYTRNQIVTILQDRLNQVSRDQVLDNAAVQFCARKVSAVSGDVRKALDVCRRAIEIVESDVKSQTILKPLSECKSPSEPLIPKRVGLIHISQVISEVDGNRMTLSQEGAQDSFPLQQKILVCSLMLLIRQLKIKEVTLGKLYEAYSKVCRKQQVAAVDQSECLSLSGLLEARGILGLKRNKETRLTKVFFKIEEKEIEHALKDKALIGNILATGLP
notes: human Cdc6; also called human Cdc6; source: Sf9, baculovirus; purified (anti-c-Myc 9E10 agarose, 9E10 peptide elution); also in Sf9 lysate; not shown: Myc, N-terminal, kept

Legend:
FLAG-HsCdt1 = molecular target: B2; assay: co-IP; 60 ng purified FLAG-HsCdt1 with 40 ng wild-type or mutant HsGeminin; rabbit anti-human Geminin polyclonal antibodies on protein A/G plus agarose; PBS plus 1 mg/ml BSA, 4 °C, 3 h; washed with PBS plus 0.5 M NaCl; Western blot; conditions: both partners purified
HsMCM467 complex = molecular target: T2, HsMCM467 complex (human, UniProt P33991 1-863; Q14566 1-821; P33993 1-719); assay: recruitment to DNA-coupled magnetic beads; two steps: HsORC or control buffer on pUC19-lamin-B2 DNA beads, then HsMCM467 or HsMCM2–7 with HsCdc6 and/or HsCdt1; 90 mM potassium acetate, 4 mM ATP, 37 °C, 30 min; washed with 100 mM potassium glutamate; Western blot; conditions: both partners purified
T2 construct: human Mcm4; human Mcm6, untagged; human Mcm7, untagged; source: Sf9 co-infected with baculoviruses for His6-2xFLAG-HsMcm4, HsMcm6 and HsMcm7; purified (Ni-NTA, then FLAG M2 agarose); copies: + +
T2 sequence (P33991 whole entry, chain 1 of 3): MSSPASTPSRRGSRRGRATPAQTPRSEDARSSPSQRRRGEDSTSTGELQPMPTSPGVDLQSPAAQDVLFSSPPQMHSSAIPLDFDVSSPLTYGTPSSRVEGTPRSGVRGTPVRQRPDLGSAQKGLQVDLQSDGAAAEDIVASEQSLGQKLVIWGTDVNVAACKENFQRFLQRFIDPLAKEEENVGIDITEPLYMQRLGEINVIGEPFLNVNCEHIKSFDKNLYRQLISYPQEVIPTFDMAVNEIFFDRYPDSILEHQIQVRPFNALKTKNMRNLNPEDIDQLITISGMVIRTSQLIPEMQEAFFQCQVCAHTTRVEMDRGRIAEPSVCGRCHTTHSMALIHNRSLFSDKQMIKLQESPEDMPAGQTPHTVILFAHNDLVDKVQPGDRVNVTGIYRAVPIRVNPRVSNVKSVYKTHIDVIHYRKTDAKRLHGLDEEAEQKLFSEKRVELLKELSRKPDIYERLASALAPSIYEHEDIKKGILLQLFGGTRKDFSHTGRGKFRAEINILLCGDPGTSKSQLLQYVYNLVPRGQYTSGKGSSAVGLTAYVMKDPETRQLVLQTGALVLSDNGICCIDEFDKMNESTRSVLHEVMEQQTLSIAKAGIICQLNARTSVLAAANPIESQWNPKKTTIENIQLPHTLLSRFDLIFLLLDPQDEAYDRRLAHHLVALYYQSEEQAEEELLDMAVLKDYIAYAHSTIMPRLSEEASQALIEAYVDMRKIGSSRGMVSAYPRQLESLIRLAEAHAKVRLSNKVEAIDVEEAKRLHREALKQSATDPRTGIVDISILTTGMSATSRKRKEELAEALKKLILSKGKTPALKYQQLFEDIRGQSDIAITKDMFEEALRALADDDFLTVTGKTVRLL
T2 sequence (Q14566 whole entry, chain 2 of 3): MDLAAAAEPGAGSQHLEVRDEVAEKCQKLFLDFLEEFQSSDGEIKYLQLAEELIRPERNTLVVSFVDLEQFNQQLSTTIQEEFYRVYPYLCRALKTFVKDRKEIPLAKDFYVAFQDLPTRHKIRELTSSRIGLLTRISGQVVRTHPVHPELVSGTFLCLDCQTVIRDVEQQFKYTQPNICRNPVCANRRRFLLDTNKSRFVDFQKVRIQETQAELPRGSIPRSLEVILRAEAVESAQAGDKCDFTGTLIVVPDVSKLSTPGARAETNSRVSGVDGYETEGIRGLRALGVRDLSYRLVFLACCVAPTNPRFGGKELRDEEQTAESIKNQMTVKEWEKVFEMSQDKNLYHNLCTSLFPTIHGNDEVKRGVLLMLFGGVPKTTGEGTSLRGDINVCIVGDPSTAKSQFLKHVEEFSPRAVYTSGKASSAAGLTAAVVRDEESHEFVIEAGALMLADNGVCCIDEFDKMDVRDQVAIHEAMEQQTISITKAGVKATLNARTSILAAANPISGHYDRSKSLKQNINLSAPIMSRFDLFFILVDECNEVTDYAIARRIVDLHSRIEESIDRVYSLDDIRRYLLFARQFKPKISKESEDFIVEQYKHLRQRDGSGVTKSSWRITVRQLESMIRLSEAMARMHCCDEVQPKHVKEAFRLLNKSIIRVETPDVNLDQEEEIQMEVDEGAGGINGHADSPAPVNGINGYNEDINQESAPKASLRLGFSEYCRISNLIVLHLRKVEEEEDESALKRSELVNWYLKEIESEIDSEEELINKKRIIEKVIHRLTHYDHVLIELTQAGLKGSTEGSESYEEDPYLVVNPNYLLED
T2 sequence (P33993 whole entry, chain 3 of 3): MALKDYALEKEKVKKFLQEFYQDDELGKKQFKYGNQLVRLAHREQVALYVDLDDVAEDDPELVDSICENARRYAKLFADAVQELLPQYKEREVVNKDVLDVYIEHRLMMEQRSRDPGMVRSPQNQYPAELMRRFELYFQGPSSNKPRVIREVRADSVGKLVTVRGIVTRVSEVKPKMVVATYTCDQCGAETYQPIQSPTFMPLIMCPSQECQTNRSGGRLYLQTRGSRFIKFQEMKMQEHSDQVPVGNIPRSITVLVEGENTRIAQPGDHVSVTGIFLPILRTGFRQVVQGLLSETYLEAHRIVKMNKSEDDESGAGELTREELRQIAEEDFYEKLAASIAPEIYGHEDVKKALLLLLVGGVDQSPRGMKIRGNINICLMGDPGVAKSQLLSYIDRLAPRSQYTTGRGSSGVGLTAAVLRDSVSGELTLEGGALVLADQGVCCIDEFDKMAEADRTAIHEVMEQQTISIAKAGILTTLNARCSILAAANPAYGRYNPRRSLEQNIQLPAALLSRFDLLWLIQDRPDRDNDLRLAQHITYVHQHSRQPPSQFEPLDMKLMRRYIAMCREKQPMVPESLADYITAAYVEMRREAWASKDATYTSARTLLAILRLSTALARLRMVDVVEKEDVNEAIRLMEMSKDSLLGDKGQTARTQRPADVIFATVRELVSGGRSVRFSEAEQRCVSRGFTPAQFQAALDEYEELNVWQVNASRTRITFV

[1] = molecular target: T1, FLAG-HsGeminin-His6 (wild type); assay: co-immunoprecipitation of purified proteins (anti-Geminin, 0.5 M NaCl wash, Western blot)
HsMCM2–7 complex = molecular target: T3, HsMCM2–7 complex (human | human (endogenous in 293T), UniProt P49736 1-904; P25205 1-808; P33991 1-863; P33992 1-734; Q14566 1-821; P33993 …); assay: recruitment to DNA-coupled magnetic beads; two steps: HsORC or control buffer on pUC19-lamin-B2 DNA beads, then HsMCM467 or HsMCM2–7 with HsCdc6 and/or HsCdt1; 90 mM potassium acetate, 4 mM ATP, 37 °C, 30 min; washed with 100 mM potassium glutamate; Western blot; conditions: both partners purified
T3 construct: human Mcm2, full length; Mcm3, endogenous in 293T; Mcm4, endogenous in 293T; Mcm5, endogenous in 293T; Mcm6, endogenous in 293T; Mcm7, endogenous in 293T; also called complete heterohexameric human MCM complex; copies: + + + + +

| Binder | binding result (FLAG-HsCdt1) | binding result (HsMCM467 complex) | binding result [1] | binding result (HsMCM2–7 complex) |
| --- | --- | --- | --- | --- |
| B1 | binds |  |  |  |
| B2 |  | binds | binds |  |
| B3 |  | binds |  | binds |
